# Measurements: publication PMC5723433, “Identification and characterization of a novel zebrafish (Danio rerio) pentraxin–carbonic anhydrase” (PeerJ, 2017)
# What was measured:
# [1] = target: zebrafish (Danio rerio) carbonic anhydrase VI-pentraxin (CA VI–PTX), recombinant (zebrafish (Danio rerio)); test: SEC + other: static and dynamic light scattering (LC-SLS-DLS); 50 ug protein injected on Superdex 200 5/150 in 50 mM NaH3PO4, 500 mM NaCl pH 8, 0.1 ml/min, 20 °C; MW from standard proteins (SEC) and from light-scattering intensity calibrated on monomeric BSA (SLS); Rh from DLS
# [2] = target: the molecule itself; test: not stated; unpublished data, preliminary result; protein in solution
Molecule,stoichiometry N [1],stoichiometry N [2]
"zebrafish (Danio rerio) carbonic anhydrase VI-pentraxin (CA VI–PTX), recombinant (enzyme)",5,
"human carbonic anhydrase VI (CA VI) (enzyme, UniProt P23280-1 18-308, looked up, carbonic anhydrase VI, human; Only an unpublished preliminary result is told (A. Yrjänäinen, 2017); also called human CA VI; gustin) QHVSDWTYSEGALDEAHWPQHYPACGGQRQSPINLQRTKVRYNPSLKGLNMTGYETQAGEFPMVNNGHTVQISLPSTMRMTVADGTVYIAQQMHFHWGGASSEISGSEHTVDGIRHVIEIHIVHYNSKYKSYDIAQDAPDGLAVLAAFVEVKNYPENTYYSNFISHLANIKYPGQRTTLTGLDVQDMLPRNLQHYYTYHGSLTTPPCTENVHWFVLADFVKLSRTQVWKLENSLLDHRNKTIHNDYRRTQPLNHRVVESNFPNQEYTLGSEFQFYLHKIEEILDYLRRALN",,2
